Source: PMC5477518

Target: LRP1, endogenous on primary cortical neurons (mouse (endogenous in primary cortical neurons)) (UniProt Q91ZX7)
Sequence of UniProt Q91ZX7 (Q91ZX7 20-4545): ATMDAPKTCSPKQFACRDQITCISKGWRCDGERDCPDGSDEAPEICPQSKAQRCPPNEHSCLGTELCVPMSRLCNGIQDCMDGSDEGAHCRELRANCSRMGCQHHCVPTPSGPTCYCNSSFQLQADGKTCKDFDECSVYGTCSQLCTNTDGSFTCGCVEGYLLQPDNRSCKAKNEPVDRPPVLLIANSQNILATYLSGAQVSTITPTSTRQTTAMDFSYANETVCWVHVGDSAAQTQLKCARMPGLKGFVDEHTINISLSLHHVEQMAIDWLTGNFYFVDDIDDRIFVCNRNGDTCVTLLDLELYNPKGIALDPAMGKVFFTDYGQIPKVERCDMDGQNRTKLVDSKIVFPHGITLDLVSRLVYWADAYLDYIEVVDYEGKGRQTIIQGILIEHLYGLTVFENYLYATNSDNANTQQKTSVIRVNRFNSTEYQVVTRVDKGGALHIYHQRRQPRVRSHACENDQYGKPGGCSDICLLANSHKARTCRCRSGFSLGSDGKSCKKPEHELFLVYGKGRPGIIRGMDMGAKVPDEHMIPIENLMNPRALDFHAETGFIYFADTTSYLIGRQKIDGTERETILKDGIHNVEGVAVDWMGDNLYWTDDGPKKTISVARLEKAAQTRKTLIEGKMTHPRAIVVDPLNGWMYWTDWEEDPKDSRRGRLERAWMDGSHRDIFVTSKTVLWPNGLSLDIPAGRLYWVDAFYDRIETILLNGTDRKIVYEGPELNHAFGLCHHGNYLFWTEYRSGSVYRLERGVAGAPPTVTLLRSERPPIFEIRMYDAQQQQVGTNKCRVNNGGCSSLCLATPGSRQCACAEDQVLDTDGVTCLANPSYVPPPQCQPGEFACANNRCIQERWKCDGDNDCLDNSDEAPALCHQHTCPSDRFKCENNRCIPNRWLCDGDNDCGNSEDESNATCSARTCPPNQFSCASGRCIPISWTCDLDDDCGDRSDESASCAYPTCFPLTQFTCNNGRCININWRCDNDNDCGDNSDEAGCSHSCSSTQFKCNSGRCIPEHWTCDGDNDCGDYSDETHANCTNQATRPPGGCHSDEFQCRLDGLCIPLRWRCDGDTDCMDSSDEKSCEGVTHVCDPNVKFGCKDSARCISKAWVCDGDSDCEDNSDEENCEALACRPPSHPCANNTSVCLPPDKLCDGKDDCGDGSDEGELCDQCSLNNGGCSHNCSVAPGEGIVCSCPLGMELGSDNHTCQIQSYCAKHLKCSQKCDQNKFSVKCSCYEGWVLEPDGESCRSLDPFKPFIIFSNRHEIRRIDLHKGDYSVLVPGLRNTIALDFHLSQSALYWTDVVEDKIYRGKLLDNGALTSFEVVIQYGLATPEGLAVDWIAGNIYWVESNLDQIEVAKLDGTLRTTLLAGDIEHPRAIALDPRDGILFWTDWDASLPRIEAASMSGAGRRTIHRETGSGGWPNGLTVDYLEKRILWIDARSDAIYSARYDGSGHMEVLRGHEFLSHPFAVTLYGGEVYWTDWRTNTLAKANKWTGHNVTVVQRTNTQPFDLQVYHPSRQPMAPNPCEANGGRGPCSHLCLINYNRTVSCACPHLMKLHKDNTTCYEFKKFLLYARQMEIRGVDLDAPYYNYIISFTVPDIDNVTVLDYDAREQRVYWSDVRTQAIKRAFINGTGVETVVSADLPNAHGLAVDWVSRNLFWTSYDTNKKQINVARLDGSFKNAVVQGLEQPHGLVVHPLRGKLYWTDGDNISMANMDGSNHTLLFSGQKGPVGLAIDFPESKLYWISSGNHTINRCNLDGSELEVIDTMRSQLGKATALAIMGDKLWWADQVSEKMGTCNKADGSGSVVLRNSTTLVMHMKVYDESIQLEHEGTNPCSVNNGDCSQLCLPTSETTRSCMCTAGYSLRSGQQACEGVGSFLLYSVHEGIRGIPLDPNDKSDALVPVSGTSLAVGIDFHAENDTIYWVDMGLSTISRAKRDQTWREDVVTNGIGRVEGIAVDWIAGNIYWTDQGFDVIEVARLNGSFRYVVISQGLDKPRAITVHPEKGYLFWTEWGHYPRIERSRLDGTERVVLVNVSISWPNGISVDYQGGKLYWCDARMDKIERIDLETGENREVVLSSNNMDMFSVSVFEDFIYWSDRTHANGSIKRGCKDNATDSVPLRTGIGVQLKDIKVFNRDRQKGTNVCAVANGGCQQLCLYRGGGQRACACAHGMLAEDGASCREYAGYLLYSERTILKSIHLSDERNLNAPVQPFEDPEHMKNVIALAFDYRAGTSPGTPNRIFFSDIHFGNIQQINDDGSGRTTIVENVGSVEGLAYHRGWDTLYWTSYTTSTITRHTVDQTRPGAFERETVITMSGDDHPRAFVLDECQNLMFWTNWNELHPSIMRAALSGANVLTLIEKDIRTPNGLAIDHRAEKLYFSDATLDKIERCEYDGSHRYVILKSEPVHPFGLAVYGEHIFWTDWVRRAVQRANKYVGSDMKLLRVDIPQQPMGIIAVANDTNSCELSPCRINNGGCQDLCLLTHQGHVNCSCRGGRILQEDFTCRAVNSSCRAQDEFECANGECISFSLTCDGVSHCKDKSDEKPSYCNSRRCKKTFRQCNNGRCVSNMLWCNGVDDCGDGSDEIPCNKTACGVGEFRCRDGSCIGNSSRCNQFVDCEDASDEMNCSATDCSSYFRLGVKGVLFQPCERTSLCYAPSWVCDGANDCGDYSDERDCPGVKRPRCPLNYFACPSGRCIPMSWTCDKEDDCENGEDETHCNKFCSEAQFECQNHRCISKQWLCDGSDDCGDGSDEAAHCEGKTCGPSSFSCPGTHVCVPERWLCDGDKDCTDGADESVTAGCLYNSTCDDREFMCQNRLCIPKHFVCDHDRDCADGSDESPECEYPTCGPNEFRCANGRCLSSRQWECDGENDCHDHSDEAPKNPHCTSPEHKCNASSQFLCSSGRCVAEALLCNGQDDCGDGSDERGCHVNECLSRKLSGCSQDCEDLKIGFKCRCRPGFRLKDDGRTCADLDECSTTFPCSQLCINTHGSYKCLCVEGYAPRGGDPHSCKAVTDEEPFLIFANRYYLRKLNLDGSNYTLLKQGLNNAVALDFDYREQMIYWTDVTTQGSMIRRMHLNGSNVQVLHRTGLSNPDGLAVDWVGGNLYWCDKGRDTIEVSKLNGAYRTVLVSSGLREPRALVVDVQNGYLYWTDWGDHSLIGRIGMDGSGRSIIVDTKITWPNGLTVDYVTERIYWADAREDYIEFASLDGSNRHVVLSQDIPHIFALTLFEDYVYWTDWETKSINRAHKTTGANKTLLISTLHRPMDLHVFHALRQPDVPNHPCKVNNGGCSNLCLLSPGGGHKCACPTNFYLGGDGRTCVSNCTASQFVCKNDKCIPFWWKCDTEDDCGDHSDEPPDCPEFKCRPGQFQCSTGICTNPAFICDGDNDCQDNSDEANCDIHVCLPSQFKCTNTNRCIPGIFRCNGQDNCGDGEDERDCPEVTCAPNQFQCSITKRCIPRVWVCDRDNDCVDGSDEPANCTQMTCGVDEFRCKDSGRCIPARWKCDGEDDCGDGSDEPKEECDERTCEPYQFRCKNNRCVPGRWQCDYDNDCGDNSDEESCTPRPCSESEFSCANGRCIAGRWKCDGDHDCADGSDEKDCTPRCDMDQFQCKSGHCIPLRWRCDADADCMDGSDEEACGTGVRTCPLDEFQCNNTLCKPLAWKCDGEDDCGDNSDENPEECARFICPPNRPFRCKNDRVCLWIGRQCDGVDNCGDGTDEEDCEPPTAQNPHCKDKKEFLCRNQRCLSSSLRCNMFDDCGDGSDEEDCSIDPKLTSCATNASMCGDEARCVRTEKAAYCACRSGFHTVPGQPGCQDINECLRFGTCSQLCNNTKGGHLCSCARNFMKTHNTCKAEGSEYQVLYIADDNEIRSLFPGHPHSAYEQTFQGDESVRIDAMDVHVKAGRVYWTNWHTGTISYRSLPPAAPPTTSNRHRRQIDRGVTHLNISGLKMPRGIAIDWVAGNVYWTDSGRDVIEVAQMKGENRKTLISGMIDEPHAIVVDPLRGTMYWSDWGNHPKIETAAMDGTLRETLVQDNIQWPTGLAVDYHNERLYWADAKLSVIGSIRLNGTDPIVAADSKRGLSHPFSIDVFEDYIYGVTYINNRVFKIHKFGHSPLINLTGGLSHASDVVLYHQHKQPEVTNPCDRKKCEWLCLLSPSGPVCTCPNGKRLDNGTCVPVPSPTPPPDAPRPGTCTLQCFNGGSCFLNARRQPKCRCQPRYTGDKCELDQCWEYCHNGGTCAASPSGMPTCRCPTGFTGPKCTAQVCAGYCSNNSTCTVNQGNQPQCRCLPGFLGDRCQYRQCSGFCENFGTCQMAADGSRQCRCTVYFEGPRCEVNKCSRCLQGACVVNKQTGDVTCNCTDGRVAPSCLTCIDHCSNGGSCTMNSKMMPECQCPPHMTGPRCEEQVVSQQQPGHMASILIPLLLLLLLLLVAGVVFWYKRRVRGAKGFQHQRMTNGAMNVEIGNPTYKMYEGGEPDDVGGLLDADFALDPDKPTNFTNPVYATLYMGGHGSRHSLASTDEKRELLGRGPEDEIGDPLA

B1: Recombinant his-human PSAP (natural protein)
chain: GPVLGLKECTRGSAVWCQNVKTASDCGAVKHCLQTVWNKPTVKSLPCDICKDVVTAAGDMLKDNATEEEILVYLEKTCDWLPKPNMSASCKEIVDSYLPVILDIIKGEMSRPGEVCSALNLCESLQKHLAELNHQKQLESNKIPELDMTEVVAPFMANIPLLLYPQDGPRSKPQPKDNGDVCQDCIQMVTDIQTAVRTNSTFVQALVEHVKEECDRLGPGMADICKNYISQYSEIAIQMMMHMQPKEICALVGFCDEVKEMPMQTLVPAKVASKNVIPALELVEPIKKHEVPAKSDVYCEVCEFLVKEVTKLIDNNKTEKEILDAFDKMCSKLPKSLSEECQEVVDTYGSSILSILLEEVSPELVCSMLHLCSGTRLPALTVHVTQPKDGGFCEVCKKLVGYLDRNLEKNSTKQEILAALEKGCSFLPDPYQKQCDQFVAEYEPVLIEILVEVMDPSFVCLKIGACPSAHKPLLGTEKCIWGPSYWCQNTETAAQCNAVEHCKRHVWN
Work on B1 yielded an uptake of hPSAP (1 μg/ml) by primary cortical neurons in the presence of GST-RAP (50 μg/ml), immunoblot of 75%.
